Assay: soluble on expression in E. coli; label from the status in PepcDB or PDB records

| Sequence | soluble on expression in E. coli |
| --- | --- |
| MAHHHHHHMYRSSGELRKYAQCVFALYCLDDGLSISRFRLAWYVLWGKWPEESVVQMLFDKKDKSTGGNEDPTGEEGGIVGSGGLAEKDKHHDGGTPLAQSFPFSALRRRINEKEFVRFAVTYHDTMGADAVGFGVTEEDGEYATVDMQSAFSGVVRARHWLQFHALAGSKGYVTLDDLIATEKVDWLYPPMSGGSASGLMVEQAGDDSSTMPQDDVDRRLAVLSHVFAIIDGDHDGKLNFEDVTRHLAKTA | not soluble |
| MAHHHHHHMYSDGERKTVSELQREAEATRKEIIEEAQRLERIKKATAKTQFSIDQLFRFFAREVETEGEKKMLIDLLSSNPPDLHIECVPVLPVVIAIANGRMTNARRIYATDNAFLDDSAFIFLVHTLRFLPQACKIDFLDISGTRVTERGMCFVLEMMIERNTPFTLVAKRLSIPSPEAEAMRARYASLMSALRDKKCCRFIQE | not soluble |
| MAHHHHHHSAALEVLFQGPGMAETKLQLFVKASEDGESVGHCPSCQRLFMVLLLKGVPFTLTTVDTRRSPDVLKDFAPGSQLPILLYDSDAKTDTLQIEDFLEETLGPPDFPSLAPRYRESNTAGNDVFHKFSAFIKNPVPAQDEALYQQLLRALARLDSYLRAPLEHELAGEPQLRESRRRFLDGDRLTLADCSLLPKLHIVDTVCAHFRQAPIPAELRGVRRYLDSAMQEKEFKYTCPHSAEILAAYR | soluble |
| MAHHHHHHSGMSGMRVYLGADHAGYELKQRIIEHLKQTGHEPIDCGALRYDADDDYPAFCIAAATRTVADPGSLGIVLGGSGNGEQIAANKVPGARCALAWSVQTAALAREHNNAQLIGIGGRMHTVAEALAIVDAFVTTPWSKAQRHQRRIDILAEYERTHEAPPVPGAPA | soluble |
| MAHHHHHHSLEYNLTTTEVAMENVSASWDEGIGEFFEKAKLEVNGGNISNEDPSAFFSNFSLHVAPVLRNINFKIEKGQLLAIAGSTGAGKTSLLMMIMGELEPSAGKIKHSGRISFSPQVSWIMPGTIKENIVFGVSYDQYRYLSVIKACQLEEDISKFPEKDNTVLGEGGITLSGGQRARISLARAVYKDADLYLLDSPFSYLDLFTEKEIFESCVCKLMANKTRILVTSKVEQLKKADKVLILHEGSCYFYGTFSELEDQRPEFSSHLIGFDHFNAERRNSIITETLRRCSEG | soluble |
| MAHHHHHHSLITIETVLTILKNNANFREIIDGKHYQYKYSNPEVAFHHISYDSRDIKASTLFFVKGATFKKEFLEKAIESGLTFYVAEKDYQVGIPLILVNNIKNAMCLIAKEFYDNPQDKLKTLAFTGTKGKTTAAYFAYHILKQGYRPAMISTMNTTLDGKTFFKSKLTTPESLDLFKMMAQAVANGMTHLIMEVSSQAYLVGRVYGLTFDVGVFLNISPDHIGPIEHPTFEDYFYHKRLLLKHSRYVIVNSQMNHFALIKEQVADQPHDFYGKYSDNQIINSKAFSFDLTGKLAGHYDIQLTGSFNQENAVAAALACLQLGASQTDIQKGIVQTTVPGRMEVLIQKNGAKVFVDYAHNGDSLEKLLSVVEEHQKGTLILILGAPGNKGESRRADFGYVINAHPELQVILTADDPNNEDPQLISQEIAHHIKRPVNIIVDRKQAIQKAMSLTQSENDAVIIAGKGADAFQIIKGKRTAYAGDIEVARKYLEG | soluble |
| MAHHHHHHSLKIRQARLEDLDRIVELEFENFSVEEAIPPSVFEAHLREIQTSFLVAEKEGRIMGYIEGPVGLHRHLQDQSFTEEIKDYSHEPGGYISVTCLSIAKEAQGLGLGQKLLTALKEVALEDERDGINLTCHDYLIAYYEKHGFVNEGQSQSTFAGETWYDMVWEMKKEG | not soluble |
| MAHVAFNLLHLPAKTLRNVFQLMSHSELFIFSFASICAKRLVKSMNFEMLELDLVYSRPCKLKISFGEHEEFIIEFDEFGTLSKQEPSDAFVFLIAYKLDIRDCINHVLEVYKISKLHTLKVIGAINNPQNLLKIIGKLDLKVLWIFFNFSENSTTISVYREILNHLGARCDVRSLRRGFYDKEPQKSFFLLRLSLSYALSQEPHSRPTATLAARRLKRRQDTQPLDATTSVLMLRSCRTVGRGTSLPTHPPFSFVIAPHYYSCTCSDIQGEPDKLQ | not soluble |

Source: the DeepSol protein solubility set
